Results as given in PMC6220335, “Molecular structure of promoter-bound yeast TFIID” (Nature Communications, 2018).

B1: Taf1 (TBP-associated factor 1), subunit of Komagataella phaffii TFIID (natural protein, UniProt F2QMX2 1-1010, looked up)
chain: MDVDFDNALNGQVGGFDQFFDGTTKHADNAIDFSDEEELADEEVGDAPQRRTDVDDEHKPPEGTYEMNLSGSEKEDLLFKNLEREASEGTELPLPTIGGLKVPNFDNNIGLNETISERNECNQISNSHFVKHLEKTMIRTQMLKYYYPSFQKSKPISFSSLFPPPLASFQLYDGRDCTPLLPLKALQEVDPDEKKIFKSSFSAHQSKGDKRSQSVKHIELMELESNNTQIPPRKQKETLKHLDRNIVLSTLSWDDTELLSDKLEERHNRNRTKPNFQQMQYDDWDVDTDMILEGTLDTSRLNLKLDMNDPHLLFLNQKHKPSPAGKMNARFPMNSKSFEMKFNISNDMQYQMLKDNYQSKIRSTIGNLSIDHSIPATILQTPFYKVKLSKQELRRFHRPVFNSRPNSTILFSKIKTRKKKKDRGKETKELFKKSVDLTLGDSASFFLLEYSEEQPVALSNFGMGSKLINYYRKLNDDDNSRPKLPVGETHVLGVQDRSPFWNFGFVEPGNLVPTFYNNMVRAPIFRHEPEETDFLLIRSSGGGISPRYFLRSLDHVFTVGQTFPVVDVPGPHSRKVTSTSKNRLKMIVYRVLNKNERHRLVVKDISIHFPDQNDMQNRQRLKEFMEYQKNGEDHGFWKIKGNEILPGFKEIQQMIQPEDIALLEAMQFGQLNLEDYDSLREETLIGQTTATTEEALQVQMAPWSTTKNFIQATQGKAMLQVHGIGDPSKKGEAISFLRISMKGGFKSSMEDIVEKAEQMDNKKSQGHSYNVAVQQKMYDEEISRVWYAQQRALSKTSDMMERELGPTEAPTASSVYDDQNQITEMAKTLEEFVLSPLQTTVSSVKPASIKEKKHMKITRMVRDQNGILQRRTQLVTDQKVIAAYIQRKQEQEKAEIDAEKISFTNDEEQNRRAKKILEEELERLEKSKERRIARKKLKEGLPVVSSLSNTDSDARLSGKGIGKGKSTSRRCATCGALGHIRTNKACPMYYSAMNKSNPNMSDLPVYDIQY
notes: Taf1, TFIID subunit of the yeast Komagataella phaffii (formerly Pichia pastoris); native subunit of the purified complex; also called KpTaf1; source: endogenous, K. phaffii nuclear extract; co-purified in TFIID by SBP-tagged Taf2 (streptavidin beads, sucrose gradient)
B2: Taf4, subunit of Komagataella phaffii TFIID (natural protein, UniProt F2QWX2 1-411, looked up)
chain: MSSTPDGSTPVDSGKRTSDQIDVGEYKRVKVERGNRSETVDSGLIDMSNSVGASLDIPTPDQLNPTNTGVQTPSLHQPGESISAHSLSLPGETSVGGSTGISRENTPQVRPDVSVSQSSSQLHQRNESFPGLSVSKSTTSLNKDTMFDNRKRLLGNNGANPNGQKSSDPEKLSDALTAAGVDLKEEESLLSQSTVIQQSRRQLSTLSSFLHPVHLATFMRRVMENNGLRNYVDHDTELLSYMSSACEGFMAGILTDSVILANHRKRPIKSKLKHSTTPRSDVSKVLRDIATKQKEREEQRVQKRVTLDIEGQEDDGKSKQDNEEVLHRAANATAMMMTSKSKKKKYSWMNADSGAQGGKTNSVLARGDSGIRYRDAREEPGLVLRDLLGALEGRRMCVANTVVKGYARMND
notes: Taf4, TFIID subunit of the yeast Komagataella phaffii (formerly Pichia pastoris); histone-fold domain modelled in the cryo-EM map; source: endogenous, K. phaffii nuclear extract; co-purified in TFIID by SBP-tagged Taf2 (streptavidin beads, sucrose gradient)
B3: Taf12, subunit of Komagataella phaffii TFIID (natural protein, UniProt F2QSK7 1-609, looked up)
chain: MNQPPNQPQDNDSQVSSSGMQGGNSMNYSSSAPVNGAGQGPQPQQNSQGQNGKKPVGMQQAQIQLLARRYQLEMQKAHQLGPQTPQGAEHLQTATKIKHVLLSYQQQRQRQQGQVQGQGLSQPQGQNQAQGRVQQQTQGLSPDPGSHQGSPQFQQPHQVMMGSAQTAGTSIANPQAQSNISSQVSQMAAAKVNSASPPIPPKTVGTPTGTPVGTQPRGQVTIQQFQQVKSILEEFEKKLRTIEAAKRDQNLPEETLQKLLRQEAILKQRYAQTKATAYQMSQHLQRQQQALRAASAESAEVYVTGSASSPNMNVYNQQILTQQPQQQLQQQQLHQPQPQQPQPARQSPHLLIHQQQQQQQQQQQQQQQQQQHPVTHRPSNVSQTMPQPSQPLQSSTPSSAVGRNQSPGATPVTSVNAAAKPSPGTSSTSTLINQHILKPAPPPTEIPARLQVKPPQPAAMKIPNRPTLLGGSAISQPSLTTPVSIRPPPLEMEGDHVLQKRKLKELLRNVGADEGDGETVIDGDVEELLLDLADEFVTSVTSFACRLAKHRKVDNIDMRDVQLHLERNWNIRVPGYASDEIRSVRKFQPTAGYNQKVQGVAISKSVNKN
notes: Taf12, TFIID subunit of the yeast Komagataella phaffii (formerly Pichia pastoris); histone-fold domain modelled in the cryo-EM map; source: endogenous, K. phaffii nuclear extract; co-purified in TFIID by SBP-tagged Taf2 (streptavidin beads, sucrose gradient)
B4: Taf8, subunit of Komagataella phaffii TFIID (natural protein, UniProt F2QT15 1-517, looked up)
chain: MADKSDDNQSLVSVSSASSGKENPNSVGQRSMNPTLSHEEQHDQEVQERYNTGKDLNITSQPECVPAMEVALKASVLLILSSLGVQASSLSIDHLTYITTKYIDRLVSELHRSTEIQRRRTIAKRDVQLVVDRGILDLEDVTLEYERLKLTRKRVKPSIEKLSKYASELKESASSVQVSENDKDAFFFFDIAEKISEFMPLRMKRKNYIPKWMPVLPPEHTYVATPQFTEVISDPKELREQLTAESRLGEKALQHLIGTKIVEDKKEDVGNENDNDIDKEIHHGEIDVESDHNLEKGPNGETNGVQSQPPKSMVSSKRFDIVAHAKHRLSVLEKRKRHQEQLLENRRKEIDGLVGQYLGYYATKKIEPPVSDIIVNIMNTEYYHVSREISKSEHRKQKIQESQQLKRRKLEDELQQELEHQTEDIDFEFNFDEDDVDMNKNLNENLNENENDDEQVLIEEDTSFDITNGDIEKTNQETPFTNGSSKQWDSNNAILDSTNSEPEPEPPIADLFNVDSS
notes: Taf8, TFIID subunit of the yeast Komagataella phaffii (formerly Pichia pastoris); putative helices placed in the cryo-EM map; also called KpTaf8; source: endogenous, K. phaffii nuclear extract; co-purified in TFIID by SBP-tagged Taf2 (streptavidin beads, sucrose gradient)
B5: Taf6, subunit of Komagataella phaffii TFIID (natural protein, UniProt F2QMA7 1-485, looked up)
chain: MSKNSQRSSIPTSHTLWSPSDTVKDAAESLGIFNLNEEAAKNLAMDIEYRIHEILDQASKFMRHGKRRTLHTSDIDRALKVLNLEPLYGYDVSRPLVFKEALVGAGQNLYYVDDDEVDFEKLINEPLPKVPRFSTFTAHWLAIEGVQPAIPQNPSPNDIKNILPINRGSMENMFSLINDEVKEDTNEEFTSTGPSVSSNISNQKQGLEVKPLVKHVLSRELQLYFDKIVEVLLNQEETKEAELLRNSALQSVRADPGLHQLVPYFIQFISETITKNLKNISLLSTMLELIYSLLMNESLFLEPYVHAIIPCILTLLLAKKIGNVDDELQKQQQLALRELSASLLERVIEDFGSSYSTLKPRITRTLLRAFVSVNNTTPGTQYGALLGLRGLGSEVIRIVVLGNVINWSSTFLEKLQQEDQVFLIDTLIETLRVLTKEGKLVKDMKTENGIDNERLKQRVGDLIADRIQACDDAQDIYWGIFFGEV
notes: Taf6, TFIID subunit of the yeast Komagataella phaffii (formerly Pichia pastoris); HEAT repeats (residues 213–486) and histone-fold domain modelled in the cryo-EM map; two copies in holo-TFIID; source: endogenous, K. phaffii nuclear extract; co-purified in TFIID by SBP-tagged Taf2 (streptavidin beads, sucrose gradient)
B6: Taf5, subunit of Komagataella phaffii TFIID (natural protein, UniProt F2QWD3 1-722, looked up)
chain: MKQEPGDSSDKSAPSGSITPQPKPPQQANVSNQQPQKPQQFSAADLNRIVLEYLNKKGYHKTESMLRMESSHIPAPPTNIPTPQTTNISRPTAPGRAPEYSDDPATIKRGYSILKSWCESSLDFYRPELEKFLYPVFVHCYLDLIARGYPSHAREFYDKFSKDHSVLHEYEISKLGGISLKEHLQENDVAKIFRSHKFKVLIGRTTFNLLLYFLNENDAVGGGVVLRLINQYIEPVITTEAIAVEREGELNLSEGIVELHTLNNTSIGGEQREISSVDAFNKKPVKLGKLQVDPEYSKELEAELKLKDEHEQAAQKKVSTTLLEEYRENFKVDPSDENNPSKDTLPLPLKSAQDLRNDIAMIQDSRAKIKLSAAQASLPSVCMYTFHNTNNDLTCLKFNDDSTMVASGFQDSFIKLWSIDGSPLRSLLKNDPYNQQNNDGVAVKGSRRLVGHSGAVYGVDFSPDNRYLISCSEDKTVRLWSLDTYTCLVSYKGHSSSVWDVKFSPMGHYFATASHDQTARLWSCDHIYPLRIFAGHLNDVDCVEFHPNSTYLFTGSSDKTARMWDIARGECVRVFMGHSGAINCLAVSPDGRWLASAGEDSVVCLWDISTGRRIKAMRGHGRSSIYSLAFSREGTVLVSTGADNSVRVWDVKKNTNSPSAQPEPINDVTAQGIQKKTEDLRRRKEIVATNDHMSVYFTKKTPVYTVHFTRRNLCLAGGVFGG
notes: Taf5, TFIID subunit of the yeast Komagataella phaffii (formerly Pichia pastoris); WD40 repeat and NTD (residues 99–243) modelled in the cryo-EM map; two copies in holo-TFIID; source: endogenous, K. phaffii nuclear extract; co-purified in TFIID by SBP-tagged Taf2 (streptavidin beads, sucrose gradient)

How the values were obtained:
[1] = biological target: T1, Taf2 with C-terminal streptavidin-binding peptide tag, subunit of Komagataella phaffii TFIID (Komagataella phaffii, UniProt F2QRH9 1-1571); assay: affinity purification with mass spectrometry; TFIID purified from K. phaffii nuclear extract by the SBP tag at the C-terminus of Taf2 (streptavidin beads, 250 mM potassium acetate, elution with 10 mM biotin, 10–30% sucrose gradient); SDS-PAGE and mass spectrometry of the purified complex; details: partners not purified
T1 construct: Taf2, TFIID subunit of the yeast Komagataella phaffii (formerly Pichia pastoris); residues 36 to 1194 modelled in the cryo-EM map; bait of the purification; also called SBP-tagged Taf2; source: K. phaffii strain with SBP-tagged Taf2, nuclear extract; purified (streptavidin beads, biotin elution, sucrose gradient)

[2] = biological target: B3; assay: cross-linking; 50 µg purified TFIID, 3 mM BS3, 2 h at 25 °C; trypsin, SCX fractionation, Orbitrap Fusion MS; pLink and Nexus, 5% FDR; details: both partners purified
[3] = biological target: B6; assay: as above; details: both partners purified
[4] = biological target: T1, Taf2 with C-terminal …; assay: as above; details: both partners purified
[5] = biological target: the molecule itself; assay: cryo-EM structure; purified TFIID (0.4 µM) with two-fold excess of TFIIA and 2.5–3-fold excess of pGAP promoter DNA, cross-linked with 0.1% glutaraldehyde; focused refinement of the lobes (Taf2 lobe 4.5 Å, Twin lobe 4.8 Å); homology models docked

| Binder | binding result [3] | stoichiometry N [5] | also measured |
| --- | --- | --- | --- |
| B1 | – | – | binding result [1]: binds |
| B2 | binds | – | binding result [2]: binds |
| B3 | binds | – | – |
| B4 | – | – | binding result [4]: binds |
| B5 | – | 2 | – |
| B6 | – | 2 | – |
